The target of the test is 15-residue tubulin peptide.

“F105A TAT mutant (from UniProt Q5SQI0 1-421) (enzyme)”: the acetylation activity kept with a 15-residue tubulin peptide (data not shown) is 89 % activity.

The values are drawn from paper PMC4726456.
